Assay results reported in paper PMC6192259 (Molecular cell, 2017).

Key:
[1] = molecular target: Dim1 (yeast, UniProt P41819 1-318); assay: pull-down
[2] = molecular target: MBP-Dim1 (yeast, UniProt P41819 1-318); assay: pull-down
Sequence of MBP-Dim1 (P41819 whole entry): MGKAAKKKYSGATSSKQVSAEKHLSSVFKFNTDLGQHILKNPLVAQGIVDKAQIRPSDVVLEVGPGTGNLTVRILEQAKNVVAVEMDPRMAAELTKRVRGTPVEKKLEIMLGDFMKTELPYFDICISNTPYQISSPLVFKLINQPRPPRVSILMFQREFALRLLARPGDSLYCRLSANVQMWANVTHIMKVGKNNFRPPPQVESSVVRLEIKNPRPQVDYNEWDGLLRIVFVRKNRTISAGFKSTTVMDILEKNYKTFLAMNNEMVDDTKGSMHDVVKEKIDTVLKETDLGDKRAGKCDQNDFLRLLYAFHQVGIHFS

Sequence of Dim1 (P41819 whole entry): as above

Row | Binder | binding result [1] | binding result [2]
1 | MBP-Fap7 (enzyme, yeast, UniProt Q12055 1-197, looked up) MEARRYGPNIIVTGTPGCGKSSTCEFLKNKLKDYKYYNISDFAKDNDCFEGYDEGRKSHIVDEDKLLDMLEPLLRQGNSIVDWHVNDVFPERLIDLVVVLRCDNSNLYSRLHARGYHDSKIEENLDAEIMGVVKQDAVESYEPHIVVELQSDTKEDMVSNVSRIVAWEKMWLEQHPDGVTNEYQGPRSDDEDDEDSE | binds | 
2 | Fap7 (enzyme, yeast, UniProt Q12055 1-197, looked up) MEARRYGPNIIVTGTPGCGKSSTCEFLKNKLKDYKYYNISDFAKDNDCFEGYDEGRKSHIVDEDKLLDMLEPLLRQGNSIVDWHVNDVFPERLIDLVVVLRCDNSNLYSRLHARGYHDSKIEENLDAEIMGVVKQDAVESYEPHIVVELQSDTKEDMVSNVSRIVAWEKMWLEQHPDGVTNEYQGPRSDDEDDEDSE |  | binds
